According to US20230174619A1 (published 2023):
Changes are numbered by the printed parent chain. Names and notes keep the numbering of the source. Values belong to the binder of their own block, whether it stands above or below them.

Assays:
murine PD-1-Fc [1] = biological target: T1, murine PD-1-Fc (murine, UniProt Q02242 25-167); experiment: bio-layer interferometry (Octet), murine PD-1-Fc surface-immobilized, His-tagged PD-L1 domain
T1 construct: Surface-immobilized in the BLI assay; It differs from the selection antigen (murine PD-1 31-150, C83S, AviTag); also called murine PD-iFc; not shown: Fc portion
T1 sequence (looked up): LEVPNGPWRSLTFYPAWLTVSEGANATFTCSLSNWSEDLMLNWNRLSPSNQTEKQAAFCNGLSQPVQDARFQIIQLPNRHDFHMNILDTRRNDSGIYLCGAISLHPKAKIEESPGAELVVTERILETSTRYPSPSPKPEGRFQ
Description: Amino acids are indicated and shown as sticks. (B) Structural alignment indicates an identical structural conformation. (C)-(E) Representative bio-layer interferometry sensograms for PD-L1 wt (C) and two indicated engineered PD-L1 variants (D, E). Raw data (thick lines) was fitted using 1:1 langmuir interaction model (thin lines).
(§1) Phage selections were performed using as an antigen recombinant murine PD-1 protein (amino acids 31-150) with C83S substitution fused to AviTag peptide, biotinylated in vivo and purified from E. coli. After a couple of selection rounds, binding of enriched phage clones were analyzed by ELISA and the selected PD-L1 variants were sequenced. In a competitive phage IC₅₀ ELISA, the 5 PD-L1 variants were examined for their binding properties by competing with 500 nM or 50 nM in solution with PD-1-Fc (FIG. 1).
Amino acid positions 54, 56, 63, 66, 68, 69, 76, 113, 115, and 121-125 were randomized. For the selected variants, dashes represent no amino acid change relative to the wild type sequence. Kd values for the interaction of the variants and murine PD-1 were obtained by bio-layer interferometry; n/a—not available. Table 2 indicates R113 because the original C113 of the murine sequence was substituted already prior to library construction, as indicated above.

murine PD-1-Fc [2] = biological target: T1, murine PD-1-Fc; experiment: bio-layer interferometry 'in similar experiments', dimeric Fc fusion (avidity)
Description: as §1
(§2) After expression and purification of the Fc fusion proteins, we obtained with one step purification on a protein A column, good purity and an average yield of 200 mg/L Expi293F culture (FIG. 4). In order to verify whether the purified protein is still binding the PD-1, we determined PD-1/PD-L1 affinities as before.

murine PD-1-Fc [3] = biological target: T1, murine PD-1-Fc; experiment: bio-layer interferometry (Octet), murine PD-1-Fc surface-immobilized; reference PD-L1 wt in the same format
murine PD-1-Fc [4] = biological target: T1, murine PD-1-Fc; experiment: bio-layer interferometry, monomeric variant 258 as retold in the text (Table 1 prints 2.17)
murine PD-1-Fc [5] = biological target: T1, murine PD-1-Fc; experiment: bio-layer interferometry, Fc fusions; reference wt Fc fusion
murine PD-1-Fc [6] = biological target: T1, murine PD-1-Fc; experiment: bio-layer interferometry 'as before', dimeric Fc fusion (avidity)
Description: as §1, §2

- Kd (murine PD-1-Fc [2]): ~0.6 nM
B2: PD-L1 wt Fc fusion protein (Ig-like V-type domain of PD-L1 fused to human Fc), expressed in Expi293F (Fc fusion)
chain: AFTITAPKDLYVVEYGSNVTMECRFPVERELDLLALVVYWEKEDEQVIQFVAGEEDLKPQHSNFRGRASLPKDQLLKGNAALQITDVKLQDAGVYRCIISYGGADYKRITLKVNA
notes: also called wt (200); wt protein; not shown: linker/hinge and human Fc

- fold advantage in binding compared to PD-L1 wt (murine PD-1-Fc [3]): ≤ 30 fold
- Kd (murine PD-1-Fc [4]): 2.14 nM
- Kd (murine PD-1-Fc [1]): 2.17 nM
B3: PD-L1 variant 258, distal Ig-like domain of murine PD-L1 (amino acids 18-132), His-tag fusion expressed in E. coli (ligand)
chain: B2 chain with Y39S, P59F, I98L
notes: not shown: His-tag

- fold improved affinity against the wt Fc fusion (murine PD-1-Fc [5]): ≤ 8 fold
- Kd (murine PD-1-Fc [6]): 0.077 nM
B4: PD-L1 variant 258 Fc fusion protein (Ig-like V-type domain fused to human Fc), expressed in Expi293F (Fc fusion)
chain: B2 chain with Y39S, P59F, I98L
notes: not shown: linker/hinge and human Fc

More lines, now with the values behind:

B1: PD-L1 wt, distal Ig-like domain of murine PD-L1 (amino acids 18-132) with C113R, His-tag fusion expressed in E. coli (ligand)
chain: B2 chain
notes: also called unmodified PD-L1 wt; wt PD-L1; not shown: His-tag
- Kd (murine PD-1-Fc [1]): 66 nM

B5: PD-L1 variant 214, distal Ig-like domain of murine PD-L1 (amino acids 18-132), His-tag fusion expressed in E. coli (ligand)
chain: B2 chain with V37L, Y39D, Q49R, V51E, A52S, P59H
notes: not shown: His-tag
- fold advantage in binding compared to PD-L1 wt (murine PD-1-Fc [3]): ≤ 30 fold
- Kd (murine PD-1-Fc [1]): 2.54 nM

B6: PD-L1 variant 214 Fc fusion protein (Ig-like V-type domain fused to human Fc), expressed in Expi293F (Fc fusion)
chain: B2 chain with V37L, Y39D, Q49R, V51E, A52S, P59H
notes: as for B4
- fold improved affinity against the wt Fc fusion (murine PD-1-Fc [5]): ≤ 8 fold
- Kd (murine PD-1-Fc [6]): 0.088 nM
